Data taken from patent US20220177581A1 (Memorial Sloan Kettering, published 2022).
Where a chain is given by its changes, count along the chain named.

B1: humanized LL2 L2 + H1 (antibody, V domains shown)
VH: QVQLVESGAEVKKPGASVKMSCKASGYTFTSYWLHWIRQAPGQRLEWIGYINPRNDYTKYSQKFQGRATITADKSASTAYMELSSLRSEDTAVYYCARRDITTFYWGQGTTLTVSS
VL: DIVLTQSPDSLAVSLGERVTMNCKSSQSVLYSANHKNYLAWYQQKPGQSPKLLIYWASTRESGVPDRFSGSGSGTDFTLTISSVQAEDVAIYYCHQYLSSWTFGGGTKLEIK
notes: Human IgG1 frameworks; also called H1L2
B2: humanized LL2 L1 + H12 (antibody, V domains shown)
VH: QVQLQQSGAEVKKPGASVKMSCKASGYTFTSYWLHWVRQAPGQRLEWMGYINPRNDYTEYNQNFKDRVTITADTSASTAYMELSSLRSEDTAVYYCARRDITTFYWGQGTTLTVSS
VL: B1 VL with L15A, S49P
notes: Human IgG1 frameworks; also called H12L1; VL1-VH12
B3: humanized LL2 L1 + H2 (antibody, V domains shown)
VH: B1 VH with V5Q, A68V, I70L, A72R
VL: B1 VL with L15A, S49P
notes: Human IgG1 frameworks; also called H2L1
B4: humanized LL2 L1 + H4 (antibody, V domains shown)
VH: B1 VH with V5Q, E6Q, I48M, K59E, S61N
VL: B1 VL with L15A, S49P
notes: Human IgG1 frameworks; also called H4L1
B5: humanized LL2 L1 + H6 (antibody, V domains shown)
VH: B2 VH with M20V, V37I, A72R
VL: B1 VL with L15A, S49P
notes: Human IgG1 frameworks; also called H6L1
B6: humanized LL2 L1 + H10 (antibody, V domains shown)
VH: B2 VH with Q5V, M20V, I70L, T74K
VL: B1 VL with L15A, S49P
notes: Human IgG1 frameworks; also called H10L1
B7: humanized LL2 L1 + H11 (antibody, V domains shown)
VH: B2 VH with Q5V, V68A
VL: B1 VL with L15A, S49P
notes: Human IgG1 frameworks; also called H11L1; VL1-VH11
B8: humanized LL2 L1 + H3 (antibody, V domains shown)
VH: B1 VH with V5Q, E6Q, M20V, K59E, I70L, K74T
VL: B1 VL with L15A, S49P
notes: Human IgG1 frameworks; also called H3L1
B9: humanized LL2 L1 + H5 (antibody, V domains shown)
VH: B1 VH with V5Q, M20V, I37V, K59E, I70L, K74T
VL: B1 VL with L15A, S49P
notes: Human IgG1 frameworks; also called H5L1
B10: chimeric anti-CD22-CD3 BsAb (chLL2 x CD3 BsAb) (bispecific antibody)
heavy: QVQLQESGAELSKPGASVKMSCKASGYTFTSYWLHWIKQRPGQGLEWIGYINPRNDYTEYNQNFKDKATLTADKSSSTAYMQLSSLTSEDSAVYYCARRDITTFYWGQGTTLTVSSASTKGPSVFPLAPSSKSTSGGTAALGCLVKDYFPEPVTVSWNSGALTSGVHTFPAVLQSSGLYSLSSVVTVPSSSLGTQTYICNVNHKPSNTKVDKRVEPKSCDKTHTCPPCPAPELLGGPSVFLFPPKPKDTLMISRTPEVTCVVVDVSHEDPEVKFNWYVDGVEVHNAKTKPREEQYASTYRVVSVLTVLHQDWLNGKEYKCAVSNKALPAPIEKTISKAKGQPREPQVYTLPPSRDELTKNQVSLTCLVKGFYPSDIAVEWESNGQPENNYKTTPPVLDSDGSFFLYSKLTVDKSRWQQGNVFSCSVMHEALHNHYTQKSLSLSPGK
light: DIQLTQSPSSLAVSAGENVTMSCKSSQSVLYSANHKNYLAWYQQKPGQSPKLLIYWASTRESGVPDRFTGSGSGTDFTLTISRVQVEDLAIYYCHQYLSSWTFGGGTKLEIKRTVAAPSVFIFPPSDEQLKSGTASVVCLLNNFYPREAKVQWKVDNALQSGNSQESVTEQDSKDSTYSLSSTLTLSKADYEKHKVYACEVTHQGLSSPVTKSFNRGECTSGGGGSGGGGSGGGGSQVQLVQSGGGVVQPGRSLRLSCKASGYTFTRYTMHWVRQAPGKCLEWIGYINPSRGYTNYNQKFKDRFTISRDNSKNTAFLQMDSLRPEDTGVYFCARYYDDHYSLDYWGQGTPVTVSSGGGGSGGGGSGGGGSGGGGSGGGGSGGGGSDIQMTQSPSSLSASVGDRVTITCSASSSVSYMNWYQQTPGKAPKRWIYDTSKLASGVPSRFSGSGSGTDYTFTISSLQPEDIATYYCQQWSSNPFTFGCGTKLQITR
notes: IgG-scFv format: huOKT3 scFv fused to the C-terminus of the LL2 IgG1 light chain; also called chimeric LL2 IgG+huOKT3 scFv

Target: T1, CD22 (antigen in the Biacore assay) (human, UniProt P20273 20-687, limits assumed)
T1 sequence: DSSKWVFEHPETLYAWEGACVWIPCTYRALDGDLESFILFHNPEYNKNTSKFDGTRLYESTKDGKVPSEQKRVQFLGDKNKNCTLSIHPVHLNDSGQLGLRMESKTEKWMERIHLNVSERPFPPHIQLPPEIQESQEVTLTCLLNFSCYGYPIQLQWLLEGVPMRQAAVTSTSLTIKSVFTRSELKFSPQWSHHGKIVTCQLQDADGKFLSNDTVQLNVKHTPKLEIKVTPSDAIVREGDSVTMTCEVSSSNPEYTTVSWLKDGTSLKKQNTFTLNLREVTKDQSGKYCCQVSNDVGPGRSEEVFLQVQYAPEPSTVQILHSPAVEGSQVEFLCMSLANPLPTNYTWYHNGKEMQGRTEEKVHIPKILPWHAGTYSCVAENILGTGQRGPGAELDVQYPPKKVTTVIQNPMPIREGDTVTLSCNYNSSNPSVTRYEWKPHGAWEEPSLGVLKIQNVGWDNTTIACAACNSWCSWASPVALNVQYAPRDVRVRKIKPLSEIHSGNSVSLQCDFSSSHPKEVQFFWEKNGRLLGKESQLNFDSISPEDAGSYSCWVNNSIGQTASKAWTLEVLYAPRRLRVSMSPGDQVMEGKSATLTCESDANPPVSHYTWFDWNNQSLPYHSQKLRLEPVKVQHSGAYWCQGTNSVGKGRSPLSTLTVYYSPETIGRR
Experiment: SPR (Biacore) at 37° C

| Binder | Kd [pM] | koff [s⁻¹] | kon [M⁻¹ s⁻¹] |
| --- | --- | --- | --- |
| B1 | 403 | 0.00219 | 5.43e+06 |
| B2 | 2.05 | 5.88e-07 | 287000 |
| B3 | 1720 | 0.00478 | 2.77e+06 |
| B4 | 0.00191 |  | 154000 |
| B5 | 0.17 | 2.91e-08 | 171000 |
| B6 | 0.0435 | 7.67e-09 | 176000 |
| B7 | 0.0104 | 1.71e-09 | 164000 |
| B8 | 34.4 | 3.09e-06 | 89800 |
| B9 | 41 | 4.19e-06 | 102000 |

Target: T2, CD22 (UniProtKB-P20273) on CD22(+) cells (human, UniProt P20273 20-847)
T2 construct: Endogenous CD22 on the NALM6 and Raji cell lines; also called SIGLEC-2; BL-CAM
T2 sequence: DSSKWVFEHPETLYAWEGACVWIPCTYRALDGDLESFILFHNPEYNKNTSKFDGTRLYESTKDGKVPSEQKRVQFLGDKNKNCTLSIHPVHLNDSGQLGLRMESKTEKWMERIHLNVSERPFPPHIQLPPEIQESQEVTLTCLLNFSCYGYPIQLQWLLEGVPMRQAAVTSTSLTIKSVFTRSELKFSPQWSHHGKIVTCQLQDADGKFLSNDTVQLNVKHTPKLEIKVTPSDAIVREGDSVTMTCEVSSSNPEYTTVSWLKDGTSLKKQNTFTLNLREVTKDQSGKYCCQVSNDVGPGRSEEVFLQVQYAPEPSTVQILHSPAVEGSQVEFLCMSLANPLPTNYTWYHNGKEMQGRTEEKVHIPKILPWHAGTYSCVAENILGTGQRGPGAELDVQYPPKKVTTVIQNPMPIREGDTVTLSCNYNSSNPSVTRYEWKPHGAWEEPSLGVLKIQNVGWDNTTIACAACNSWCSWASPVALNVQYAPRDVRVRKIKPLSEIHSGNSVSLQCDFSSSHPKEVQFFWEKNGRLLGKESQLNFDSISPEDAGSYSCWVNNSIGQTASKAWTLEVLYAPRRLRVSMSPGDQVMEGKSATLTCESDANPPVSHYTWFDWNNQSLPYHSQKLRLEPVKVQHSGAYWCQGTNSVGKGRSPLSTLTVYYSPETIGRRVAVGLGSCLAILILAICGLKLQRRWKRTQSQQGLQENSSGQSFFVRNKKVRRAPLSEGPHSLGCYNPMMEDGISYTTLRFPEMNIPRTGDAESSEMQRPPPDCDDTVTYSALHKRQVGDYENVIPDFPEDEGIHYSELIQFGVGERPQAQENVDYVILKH
Experiment: flow cytometry on CD22(+) NALM6 cells

| Binder | MFI (FACS NALM6) |
| --- | --- |
| B1 | 40 |
| B2 | 39.2 |
| B3 | 32.8 |
| B4 | 33.6 |
| B5 | 33.5 |
| B6 | 32.7 |
| B7 | 33.6 |
| B8 | 31.9 |
| B9 | 35.2 |

Target: T2, CD22 (UniProtKB-P20273) on CD22(+) cells
Experiment: flow cytometry (FACS) on CD22(+) NALM6 cells, detected with an anti-human Fc second antibody
Procedure: The binding of bispecific CD22-CD3 IgG-scFv antibodies to NALM6 CD22(+) leukemic cells was assayed using FACS. CD22(−) MOLM13 AML cells were used as a negative control for CD22 expression, and anti-CD3 humanized OKT3 (huOKT3) was used as a negative antibody control. […] In contrast, neither the chimeric LL2 IgG+huOKT3 scFv nor the huOKT3 antibody stained the CD22(−) MOLM13 AML cells.

| Binder | binding result |
| --- | --- |
| B10 | binds |
